From PMC9279507

T1: 6XHis-tagged TgIST-R2 (G365-S420)
T1 chain: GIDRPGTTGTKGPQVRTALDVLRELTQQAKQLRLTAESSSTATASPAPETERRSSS


Assays:
[1] = target: phosphorylated STAT1 dimer (pSTAT1d), STAT1 core domain S132-H713 (human) (UniProt P42224); experiment: BLI; His-tagged pSTAT1d or STAT1 monomer loaded on Ni-NTA biosensors, TgIST-R2 proteins in solution; kinetic buffer (ForteBio), 25 °C; 1:1 model for the constant
[2] = target: STAT1cc (STAT1 core fragment, A656C and N658C, locked dimer), tag-free (UniProt P42224); experiment: nickel affinity copurification, SDS-PAGE, Coomassie blue band quantification; settings: parent: est. 1.0; read off a plot
[3] = target: GST-tagged TgIST-R2 (Toxoplasma gondii (type I strain GT1)); experiment: BLI; GST-tagged TgIST-R2 loaded on anti-GST biosensors, pSTAT1d or pSTAT1d-linker-R2 in solution; kinetic buffer (ForteBio), 25 °C; apparent avidity, 1:2 model
[4] = target: T1, 6XHis-tagged TgIST-R2 (G365-S420); experiment: nickel affinity copurification, SDS-PAGE, Coomassie blue band quantification; settings: chain shown with the change;; parent: est. 1.0; read off a plot

Molecule	ratio to parent [2]	also measured
TgIST-R2 peptide after GST removal (domain or fragment)	–	Kd [1]: 0.33 µM
6XHis-tagged TgIST-R2 (G365-S420) Q378A	0.83	–
phosphorylated STAT1 dimer (pSTAT1d), STAT1 core domain S132-H713 (from UniProt P42224 132-713) (domain or fragment)	–	Kd [3]: 0.022 µM
6XHis-tagged TgIST-R2 (G365-S420) Q391A	1.1	–
6XHis-tagged TgIST-R2 (G365-S420) Q391A; Q392A	0.99	–
6XHis-tagged TgIST-R2 (G365-S420) D384A	0.57	–
6XHis-tagged TgIST-R2 (G365-S420) L386A	0.02	–
6XHis-tagged TgIST-R2 (G365-S420) L383A	0.01	–
6XHis-tagged TgIST-R2 (G365-S420) R416A; R417A	0.98	–
6XHis-tagged TgIST-R2 (G365-S420) Q392A	0.91	–
6XHis-tagged TgIST-R2 (G365-S420) T381A	0.38	–
6XHis-tagged TgIST-R2 (G365-S420) E388A	1.1	–
6XHis-tagged TgIST-R2 (G365-S420) R387A	0.03	–
STAT1cc (STAT1 core fragment, A656C and N658C, locked dimer), tag-free, P42224 N622A (protein) MSQWYELQQLDSKFLEQVHQLYDDSFPMEIRQYLAQWLEKQDWEHAANDVSFATIRFHDLLSQLDDQYSRFSLENNFLLQHNIRKSKRNLQDNFQEDPIQMSMIIYSCLKEERKILENAQRFNQAQSGNIQSTVMLDKQKELDSKVRNVKDKVMCIEHEIKSLEDLQDEYDFKCKTLQNREHETNGVAKSDQKQEQLLLKKMYLMLDNKRKEVVHKIIELLNVTELTQNALINDELVEWKRRQQSACIGGPPNACLDQLQNWFTIVAESLQQVRQQLKKLEELEQKYTYEHDPITKNKQVLWDRTFSLFQQLIQSSFVVERQPCMPTHPQRPLVLKTGVQFTVKLRLLVKLQELNYNLKVKVLFDKDVNERNTVKGFRKFNILGTHTKVMNMEESTNGSLAAEFRHLQLKEQKNAGTRTNEGPLIVTEELHSLSFETQLCQPGLVIDLETTSLPVVVISNVSQLPSGWASILWYNMLVAEPRNLSFFLTPPCARWAQLSEVLSWQFSSVTKRGLNVDQLNMLGEKLLGPNASPDGLIPWTRFCKENINDKNFPFWLWIESILELIKKHLLPLWNDGCIMGFISKERERALLKDQQPGTFLLRFSESSREGAITFTWVERSQAGGEPDFHAVEPYTKKELSAVTFPDIIRNYKVMAAENIPENPLKYLYPNIDKDHAFGKYYSRPKEAPEPMELDGPKGTGYIKTELISVSEVHPSRLQTTDNLLPMSPEEFDEVSRIVGSVEFDSMMNTV	–	ratio to parent [4]: 0.71
STAT1cc (STAT1 core fragment, A656C and N658C, locked dimer), tag-free, P42224 K665A (protein) MSQWYELQQLDSKFLEQVHQLYDDSFPMEIRQYLAQWLEKQDWEHAANDVSFATIRFHDLLSQLDDQYSRFSLENNFLLQHNIRKSKRNLQDNFQEDPIQMSMIIYSCLKEERKILENAQRFNQAQSGNIQSTVMLDKQKELDSKVRNVKDKVMCIEHEIKSLEDLQDEYDFKCKTLQNREHETNGVAKSDQKQEQLLLKKMYLMLDNKRKEVVHKIIELLNVTELTQNALINDELVEWKRRQQSACIGGPPNACLDQLQNWFTIVAESLQQVRQQLKKLEELEQKYTYEHDPITKNKQVLWDRTFSLFQQLIQSSFVVERQPCMPTHPQRPLVLKTGVQFTVKLRLLVKLQELNYNLKVKVLFDKDVNERNTVKGFRKFNILGTHTKVMNMEESTNGSLAAEFRHLQLKEQKNAGTRTNEGPLIVTEELHSLSFETQLCQPGLVIDLETTSLPVVVISNVSQLPSGWASILWYNMLVAEPRNLSFFLTPPCARWAQLSEVLSWQFSSVTKRGLNVDQLNMLGEKLLGPNASPDGLIPWTRFCKENINDKNFPFWLWIESILELIKKHLLPLWNDGCIMGFISKERERALLKDQQPGTFLLRFSESSREGAITFTWVERSQNGGEPDFHAVEPYTKKELSAVTFPDIIRNYKVMAAENIPENPLAYLYPNIDKDHAFGKYYSRPKEAPEPMELDGPKGTGYIKTELISVSEVHPSRLQTTDNLLPMSPEEFDEVSRIVGSVEFDSMMNTV	–	ratio to parent [4]: 0.7
STAT1cc (STAT1 core fragment, A656C and N658C, locked dimer), tag-free, P42224 E657A (protein) MSQWYELQQLDSKFLEQVHQLYDDSFPMEIRQYLAQWLEKQDWEHAANDVSFATIRFHDLLSQLDDQYSRFSLENNFLLQHNIRKSKRNLQDNFQEDPIQMSMIIYSCLKEERKILENAQRFNQAQSGNIQSTVMLDKQKELDSKVRNVKDKVMCIEHEIKSLEDLQDEYDFKCKTLQNREHETNGVAKSDQKQEQLLLKKMYLMLDNKRKEVVHKIIELLNVTELTQNALINDELVEWKRRQQSACIGGPPNACLDQLQNWFTIVAESLQQVRQQLKKLEELEQKYTYEHDPITKNKQVLWDRTFSLFQQLIQSSFVVERQPCMPTHPQRPLVLKTGVQFTVKLRLLVKLQELNYNLKVKVLFDKDVNERNTVKGFRKFNILGTHTKVMNMEESTNGSLAAEFRHLQLKEQKNAGTRTNEGPLIVTEELHSLSFETQLCQPGLVIDLETTSLPVVVISNVSQLPSGWASILWYNMLVAEPRNLSFFLTPPCARWAQLSEVLSWQFSSVTKRGLNVDQLNMLGEKLLGPNASPDGLIPWTRFCKENINDKNFPFWLWIESILELIKKHLLPLWNDGCIMGFISKERERALLKDQQPGTFLLRFSESSREGAITFTWVERSQNGGEPDFHAVEPYTKKELSAVTFPDIIRNYKVMAAANIPENPLKYLYPNIDKDHAFGKYYSRPKEAPEPMELDGPKGTGYIKTELISVSEVHPSRLQTTDNLLPMSPEEFDEVSRIVGSVEFDSMMNTV	–	ratio to parent [4]: 0.71
STAT1cc (STAT1 core fragment, A656C and N658C, locked dimer), tag-free, P42224 E661A (protein) STVMLDKQKELDSKVRNVKDKVMCIEHEIKSLEDLQDEYDFKCKTLQNREHETNGVAKSDQKQEQLLLKKMYLMLDNKRKEVVHKIIELLNVTELTQNALINDELVEWKRRQQSACIGGPPNACLDQLQNWFTIVAESLQQVRQQLKKLEELEQKYTYEHDPITKNKQVLWDRTFSLFQQLIQSSFVVERQPCMPTHPQRPLVLKTGVQFTVKLRLLVKLQELNYNLKVKVLFDKDVNERNTVKGFRKFNILGTHTKVMNMEESTNGSLAAEFRHLQLKEQKNAGTRTNEGPLIVTEELHSLSFETQLCQPGLVIDLETTSLPVVVISNVSQLPSGWASILWYNMLVAEPRNLSFFLTPPCARWAQLSEVLSWQFSSVTKRGLNVDQLNMLGEKLLGPNASPDGLIPWTRFCKENINDKNFPFWLWIESILELIKKHLLPLWNDGCIMGFISKERERALLKDQQPGTFLLRFSESSREGAITFTWVERSQNGGEPDFHAVEPYTKKELSAVTFPDIIRNYKVMACECIPANPLKYLYPNIDKDHAFGKYYSRPKEAPEPMELDGPKGTGYIKTELISVSEVH	–	ratio to parent [4]: 0.61
